Test results: the Immune Epitope Database (IEDB)

What was measured:
HLA-B*35:01 = assay: IEDB peptide-MHC binding, purified MHC/direct/fluorescence; filed as Kd, often an IC50 or EC50 that approximates it; ≥ and ≤ were set here for values at or beyond the usual limits of such assays; details: source organism: Yellow fever virus
HLA-B*51:01 [1] = assay: as above; details: source organism: Yellow fever virus
HLA-C*03:03 = assay: as above
HLA-A*02:01 [2] = assay: IEDB peptide-MHC binding, purified MHC/competitive/fluorescence; filed as Kd, often an IC50 or EC50 that approximates it; ≥ and ≤ were set here for values at or beyond the usual limits of such assays
HLA-A*01:01 [3] = assay: IEDB peptide-MHC binding, purified MHC/direct/fluorescence; filed as Kd, often an IC50 or EC50 that approximates it; ≥ and ≤ were set here for values at or beyond the usual limits of such assays
HLA-A*03:01 [4] = assay: as above
HLA-A*11:01 = assay: as above
HLA-A*31:01 [5] = assay: as above
HLA-B*08:02 = assay: as above; details: source organism: West Nile virus strain PTRoxo
HLA-B*18:01 [6] = assay: as above; details: source organism: West Nile virus
HLA-B*27:05 = assay: as above
HLA-B*40:01 = assay: as above
HLA-B*44:02 [7] = assay: as above; details: source organism: West Nile virus
HLA-B*48:01 = assay: as above; details: source organism: West Nile virus
HLA-B*57:01 [8] = assay: as above; details: source organism: West Nile virus
HLA-B*58:01 [9] = assay: as above
HLA-A*31:01 [10] = assay: IEDB peptide-MHC binding, purified MHC/competitive/fluorescence; filed as Kd, often an IC50 or EC50 that approximates it; ≥ and ≤ were set here for values at or beyond the usual limits of such assays
HLA-A*02:01 [11] = assay: IEDB peptide-MHC binding, purified MHC/direct/fluorescence; filed as Kd, often an IC50 or EC50 that approximates it; ≥ and ≤ were set here for values at or beyond the usual limits of such assays; details: source organism: Escherichia coli
HLA-A*24:03 = assay: as above
HLA-A*26:01 [12] = assay: as above; details: source organism: Escherichia coli
HLA-A*69:01 = assay: as above; details: source organism: Escherichia coli
HLA-B*07:02 = assay: as above; details: source organism: Escherichia coli
HLA-B*08:01 = assay: as above; details: source organism: Escherichia coli
HLA-B*15:01 [13] = assay: as above
HLA-A*02:03 = assay: IEDB peptide-MHC binding, purified MHC/competitive/fluorescence; filed as Kd, often an IC50 or EC50 that approximates it; ≥ and ≤ were set here for values at or beyond the usual limits of such assays; details: source organism: Escherichia coli
HLA-A*02:06 = assay: as above; details: source organism: Escherichia coli
HLA-A*02:11 = assay: as above; details: source organism: Escherichia coli
HLA-A*02:12 = assay: as above; details: source organism: Escherichia coli
HLA-A*01:01 [14] = assay: IEDB peptide-MHC binding, purified MHC/competitive/radioactivity; filed as Kd, often an IC50 or EC50 that approximates it; ≥ and ≤ were set here for values at or beyond the usual limits of such assays; details: source organism: Dengue virus 3 Martinique/1243/1999
HLA-B*51:01 [15] = assay: as above; details: source organism: Dengue virus 3 Martinique/1243/1999
HLA-B*58:01 [16] = assay: as above
HLA-C*06:02 = assay: IEDB peptide-MHC binding, purified MHC/direct/fluorescence; filed as Kd, often an IC50 or EC50 that approximates it; ≥ and ≤ were set here for values at or beyond the usual limits of such assays
HLA-B*44:02 [17] = assay: IEDB peptide-MHC binding, purified MHC/competitive/radioactivity; filed as Kd, often an IC50 or EC50 that approximates it; ≥ and ≤ were set here for values at or beyond the usual limits of such assays; details: source organism: Dengue virus 3 Sri Lanka/1266/2000
HLA-B*44:03 = assay: as above; details: source organism: Dengue virus 3 Sri Lanka/1266/2000
HLA-B*53:01 = assay: as above; details: source organism: Dengue virus 3 Sri Lanka/1266/2000
HLA-A*03:01 [18] = assay: IEDB peptide-MHC binding, purified MHC/competitive/fluorescence; filed as Kd, often an IC50 or EC50 that approximates it; ≥ and ≤ were set here for values at or beyond the usual limits of such assays
HLA-B*46:01 [19] = assay: IEDB peptide-MHC binding, purified MHC/direct/fluorescence; filed as Kd, often an IC50 or EC50 that approximates it; ≥ and ≤ were set here for values at or beyond the usual limits of such assays; details: source organism: Yellow fever virus
HLA-A*26:01 [20] = assay: IEDB peptide-MHC binding, purified MHC/competitive/fluorescence; filed as Kd, often an IC50 or EC50 that approximates it; ≥ and ≤ were set here for values at or beyond the usual limits of such assays
HLA-B*39:01 = assay: as above; details: source organism: Escherichia coli
HLA-C*14:02 = assay: IEDB peptide-MHC binding, purified MHC/direct/fluorescence; filed as Kd, often an IC50 or EC50 that approximates it; ≥ and ≤ were set here for values at or beyond the usual limits of such assays; details: source organism: Pan troglodytes
HLA-C*15:02 = assay: as above; details: source organism: Pan troglodytes
HLA-B*15:01 [21] = assay: IEDB peptide-MHC binding, purified MHC/competitive/fluorescence; filed as Kd, often an IC50 or EC50 that approximates it; ≥ and ≤ were set here for values at or beyond the usual limits of such assays; details: source organism: Pan troglodytes
HLA-B*18:01 [22] = assay: as above; details: source organism: Pan troglodytes
HLA-B*27:03 = assay: as above; details: source organism: Pan troglodytes
HLA-B*46:01 [23] = assay: as above; details: source organism: Pan troglodytes
HLA-B*57:01 [24] = assay: as above; details: source organism: Pan troglodytes
[25] = source organism: Yellow fever virus
[26] = source organism: Vaccinia virus WR
[27] = source organism: West Nile virus
[28] = source organism: Mammarenavirus juninense
[29] = source organism: Escherichia coli
[30] = source organism: Escherichia coli E22
[31] = source organism: Pan troglodytes

AATIRVLAL was tested, and the Kd (HLA-B*35:01) was no less than 20000 nM, the Kd (HLA-B*51:01 [1]) was no less than 20000 nM and the Kd (HLA-C*03:03; [25]) was 9 nM.
With GLNDYLHSV the Kd (HLA-C*03:03; [26]) was no less than 20000 nM and the Kd (HLA-A*02:01 [2]; [26]) was 1.6 nM.
For ILRNPGYAL, the Kd (HLA-A*01:01 [3]; [27]) was no less than 20000 nM, the Kd (HLA-A*03:01 [4]; [27]) was no less than 20000 nM and the Kd (HLA-A*11:01; [27]) was no less than 20000 nM. For the same sequence, the Kd (HLA-A*31:01 [5]; [27]) was no less than 20000 nM, the Kd (HLA-B*08:02) was no less than 20000 nM and the Kd (HLA-B*18:01 [6]) was no less than 20000 nM. It also gave a Kd (HLA-B*27:05; [27]) of no less than 20000 nM, a Kd (HLA-B*40:01; [27]) of no less than 20000 nM and a Kd (HLA-B*44:02 [7]) of no less than 20000 nM. The Kd (HLA-B*48:01) was no less than 20000 nM, the Kd (HLA-B*57:01 [8]) was no less than 20000 nM and the Kd (HLA-B*58:01 [9]; [27]) was no less than 20000 nM. For the same sequence, the Kd (HLA-C*03:03; [27]) was 157 nM.
In the case of KLFDLHGRR, the Kd (HLA-A*03:01 [4]; [28]) is reported as 241 nM and the Kd (HLA-A*31:01 [10]; [28]) is reported as 11.1 nM.
KVLCPYMPK was tested, and the Kd (HLA-A*03:01 [4]; [27]) was 562 nM, the Kd (HLA-A*11:01; [27]) was 3.7 nM and the Kd (HLA-A*31:01 [10]; source organism: Japanese encephalitis virus) was 60.5 nM.
Work on LMQWWSDYV yielded a Kd (HLA-A*01:01 [3]; [29]) of no less than 20000 nM, a Kd (HLA-A*02:01 [11]) of 5.74 nM and a Kd (HLA-A*03:01 [4]; [29]) of no less than 20000 nM. It also gave a Kd (HLA-A*11:01; [29]) of no less than 20000 nM, a Kd (HLA-A*24:03; [29]) of no less than 20000 nM and a Kd (HLA-A*26:01 [12]) of 343 nM. For the same sequence, the Kd (HLA-A*31:01 [5]; [29]) was 562 nM, the Kd (HLA-A*69:01) was 4.76 nM and the Kd (HLA-B*07:02) was no less than 20000 nM. It also gave a Kd (HLA-B*08:01) of no less than 20000 nM, a Kd (HLA-B*15:01 [13]; [29]) of 234 nM and a Kd (HLA-B*27:05; [29]) of no less than 20000 nM. For the same sequence, the Kd (HLA-B*40:01; [29]) was no less than 20000 nM, the Kd (HLA-B*58:01 [9]; [29]) was no less than 20000 nM and the Kd (HLA-A*02:03) was no more than 0.1 nM. The Kd (HLA-A*02:06) was 2.85 nM, the Kd (HLA-A*02:11) was no more than 0.1 nM and the Kd (HLA-A*02:12) was no more than 0.1 nM.
With LTAAVLLLI the Kd (HLA-A*01:01 [14]) was no less than 78100 nM, the Kd (HLA-B*51:01 [15]) was 647 nM and the Kd (HLA-B*58:01 [16]; source organism: Dengue virus 3 Martinique/1243/1999) was 11.3 nM.
Sequence LYIEILRLL has a Kd (HLA-A*24:03; source organism: Mycobacterium avium 104) of 7 nM and a Kd (HLA-C*06:02; source organism: Mycobacterium tuberculosis C) of 44 nM.
Sequence MEITAEWLW has a Kd (HLA-B*44:02 [17]) of 4.63 nM, a Kd (HLA-B*44:03) of 9.15 nM and a Kd (HLA-B*53:01) of 32.1 nM. The Kd (HLA-B*58:01 [16]; source organism: Dengue virus 3 Sri Lanka/1266/2000) was 5.39 nM.
With MFIIKYFKK the Kd (HLA-A*03:01 [18]; [30]) was no less than 20000 nM and the Kd (HLA-A*31:01 [10]; [30]) was 246 nM.
RSHAAIGAY gave a Kd (HLA-A*11:01; [25]) of no less than 20000 nM, a Kd (HLA-B*15:01 [13]; [25]) of 87 nM and a Kd (HLA-B*46:01 [19]) of no less than 20000 nM. For the same sequence, the Kd (HLA-A*31:01 [10]; [25]) was no less than 20000 nM.
Work on YIVGYYSAL yielded a Kd (HLA-C*03:03; source organism: Escherichia coli B171) of no more than 1 nM, a Kd (HLA-A*02:01 [2]; [29]) of 1.7 nM and a Kd (HLA-A*26:01 [20]; [29]) of 232 nM. For the same sequence, the Kd (HLA-B*39:01) was 87.1 nM.
YYFSYPLFV was tested, and the Kd (HLA-C*06:02; [31]) was 6 nM, the Kd (HLA-C*14:02) was no more than 1 nM and the Kd (HLA-C*15:02) was 771 nM. The Kd (HLA-A*02:01 [2]; [31]) was 130 nM, the Kd (HLA-A*03:01 [18]; [31]) was no less than 20000 nM and the Kd (HLA-A*26:01 [20]; [31]) was no less than 20000 nM. It also gave a Kd (HLA-B*15:01 [21]) of no less than 20000 nM, a Kd (HLA-B*18:01 [22]) of no less than 20000 nM and a Kd (HLA-B*27:03) of no less than 20000 nM. It also gave a Kd (HLA-B*46:01 [23]) of no less than 20000 nM and a Kd (HLA-B*57:01 [24]) of no less than 20000 nM.
